Patent publication US20160053011A1 (ABCLON, published 2016)

Legend:
HER2-ECD-His protein = molecular target: T1, HER2-ECD-His protein (human, UniProt P04626 23-652); assay: SPR (Biacore 3000), antibody captured by anti-human IgG, HER2-ECD-His analyte, 1:1 model
T1 construct: extracellular domain; not shown: His tag
Experimental: All the experiments were performed using Biacore 3000. First, the goat antibodies to human IgG were immobilized at a concentration of 1000 RU to a CM5 sensor chip via an amine coupling method. […] Before binding to HER2-ECD-His protein, each antibody was bound at a rate of 50 μL/min for 180 seconds, and allowed the buffer to flow thereonto for stabilization purpose. […] The sensor chip was recycled by allowing 10 mM Glycine-HCl (pH 1.5) buffer to flow thereonto. All the sensorgram data was analyzed via a 1:1 interaction model using BIAevaluation software.

[1] = molecular target: T2, HER3 extracellular domain (R&D Systems, #348-RB-050) (human, UniProt P21860 20-643); assay: ELISA on extracellular domains of ErbB family proteins, absorbance; antibody concentration not given
T2 construct: extracellular domain; Purchased

EGFR-ECD-Fc = molecular target: T3, EGFR-ECD-Fc (human, UniProt P00533 25-645); assay: as above
T3 construct: extracellular domain; Produced in the same manner as HER2-ECD-Fc; not shown: hinge region of human IgG1 and Fc portion (CH2-CH3), as in HER2-ECD-Fc

[2] = molecular target: T4, HER4 extracellular domain (R&D Systems, #1131-ER-050) (human, UniProt Q15303 26-651); assay: as above
T4 construct: extracellular domain; Purchased
T4 sequence (looked up): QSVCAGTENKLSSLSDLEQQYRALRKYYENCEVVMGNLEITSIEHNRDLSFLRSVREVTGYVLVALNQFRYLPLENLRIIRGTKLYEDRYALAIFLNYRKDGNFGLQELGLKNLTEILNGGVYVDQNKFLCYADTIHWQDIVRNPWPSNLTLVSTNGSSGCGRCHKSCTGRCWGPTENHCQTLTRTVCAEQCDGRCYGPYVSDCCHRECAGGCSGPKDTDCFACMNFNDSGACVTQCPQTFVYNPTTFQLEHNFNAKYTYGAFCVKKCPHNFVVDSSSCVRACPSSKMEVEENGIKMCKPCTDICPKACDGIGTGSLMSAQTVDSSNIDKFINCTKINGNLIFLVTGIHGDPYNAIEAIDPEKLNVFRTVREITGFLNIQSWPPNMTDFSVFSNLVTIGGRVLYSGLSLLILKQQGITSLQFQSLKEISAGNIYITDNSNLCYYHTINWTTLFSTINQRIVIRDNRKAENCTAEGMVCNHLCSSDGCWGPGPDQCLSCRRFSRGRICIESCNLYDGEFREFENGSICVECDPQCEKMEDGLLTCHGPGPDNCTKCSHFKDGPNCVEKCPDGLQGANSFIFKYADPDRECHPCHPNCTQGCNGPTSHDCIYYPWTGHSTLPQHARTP

ECD = assay: ELISA on HER2 ECD, absorbance; antibody concentration not given
Mouse = molecular target: T5, Mouse (mouse, UniProt P70424); assay: ELISA on HER2 extracellular domains of five species, absorbance; antibody concentration not given
T5 construct: extracellular domain; also called HER2 extracellular domain of a mouse (Sino Biological Inc., #50714-M08H); mouse HER2

[3] = molecular target: T6, HER2 extracellular domain of a rhesus monkey (Sino Biological Inc., #90020-K08H) (rhesus monkey, UniProt I0FM22 23-652); assay: as above
T6 construct: extracellular domain; Purchased; also called rhesus monkey HER2

Rat = molecular target: T7, Rat (rat, UniProt P06494); assay: as above
T7 construct: extracellular domain; also called HER2 extracellular domain of a rat (Sino Biological Inc., #80079-R08H); rat HER2

Domain3 = molecular target: T8, Domain3 (human, UniProt P04626); assay: ELISA on HER2 sub-domain Fc fusions, absorbance; antibody concentration not given
T8 construct: single sub-domain of the extracellular domain; produced in animal cells, purified with Protein-A; also called HER2 sub-domain 3 with hinge region and Fc region of human IgG1

Domain2 = molecular target: T9, Domain2 (human, UniProt P04626); assay: as above
T9 construct: single sub-domain of the extracellular domain; produced in animal cells, purified with Protein-A; also called HER2 sub-domain 2 with hinge region and Fc region of human IgG1

Domain1 = molecular target: T10, Domain1 (human, UniProt P04626); assay: as above
T10 construct: single sub-domain of the extracellular domain; produced in animal cells, purified with Protein-A; also called HER2 sub-domain 1 with hinge region and Fc region of human IgG1

T7 sequence (P06494 23-654): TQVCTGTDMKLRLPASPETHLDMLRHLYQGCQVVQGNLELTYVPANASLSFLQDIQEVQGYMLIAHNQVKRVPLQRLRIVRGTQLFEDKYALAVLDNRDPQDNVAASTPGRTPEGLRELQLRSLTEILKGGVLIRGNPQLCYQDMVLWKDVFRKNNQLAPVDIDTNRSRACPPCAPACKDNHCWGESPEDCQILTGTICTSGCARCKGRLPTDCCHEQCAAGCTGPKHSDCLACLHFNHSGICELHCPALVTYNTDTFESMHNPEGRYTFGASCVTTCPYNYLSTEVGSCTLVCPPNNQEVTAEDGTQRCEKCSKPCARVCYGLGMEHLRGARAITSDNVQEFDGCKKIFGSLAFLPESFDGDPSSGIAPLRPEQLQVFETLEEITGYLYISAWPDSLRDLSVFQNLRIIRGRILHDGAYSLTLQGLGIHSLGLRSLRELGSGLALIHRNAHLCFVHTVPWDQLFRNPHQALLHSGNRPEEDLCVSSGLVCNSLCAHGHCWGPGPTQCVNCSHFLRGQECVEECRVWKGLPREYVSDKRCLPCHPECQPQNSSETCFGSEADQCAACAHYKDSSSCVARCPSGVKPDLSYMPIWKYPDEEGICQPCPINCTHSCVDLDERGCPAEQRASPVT
T5 sequence (P70424 23-653): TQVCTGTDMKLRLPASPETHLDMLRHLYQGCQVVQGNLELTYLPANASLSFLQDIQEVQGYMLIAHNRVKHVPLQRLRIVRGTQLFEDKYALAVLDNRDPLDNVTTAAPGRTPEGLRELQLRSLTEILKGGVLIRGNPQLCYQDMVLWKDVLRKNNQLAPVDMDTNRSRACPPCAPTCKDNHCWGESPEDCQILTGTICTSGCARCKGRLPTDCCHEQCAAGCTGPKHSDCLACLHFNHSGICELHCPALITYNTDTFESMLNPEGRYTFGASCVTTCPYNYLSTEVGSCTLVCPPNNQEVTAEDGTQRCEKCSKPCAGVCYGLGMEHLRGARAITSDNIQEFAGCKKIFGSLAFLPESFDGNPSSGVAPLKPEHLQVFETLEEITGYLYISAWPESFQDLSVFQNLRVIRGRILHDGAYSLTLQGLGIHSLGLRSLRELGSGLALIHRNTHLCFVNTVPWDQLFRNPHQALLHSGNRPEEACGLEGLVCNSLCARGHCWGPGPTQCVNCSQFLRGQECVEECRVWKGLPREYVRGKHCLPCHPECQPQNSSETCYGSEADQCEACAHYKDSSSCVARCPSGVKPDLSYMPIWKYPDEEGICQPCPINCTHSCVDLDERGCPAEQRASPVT

B1: 1E11 antibody (antibody, V domains shown)
VH: EVKLVESGGGLVQPGGSLKLSCAASGFTFSSYTMSWVRQTPEKRLEWVAYISNGGGSTYYPDTVKGRFTISRDNAKNTLYLQMSSLKSEDTAMYYCARHLGGTASFDYWGQGTTVTVSS
VL: DIQMTQSPASQSASLGESVTITCLASQTIGTWLAWYQQKPGKSPQLLIYVATSLADGVPSRFSGSGSGTKFSFKISSLQAEDFVSYYCQQLYSTPWTFGGGTKLELK
notes: Mouse variable regions; also called 1E11 clones; chimeric 1E11
A Kd (HER2-ECD-His protein) of 16 nM, a koff (HER2-ECD-His protein) of 0.00047 s⁻¹ and a kon (HER2-ECD-His protein) of 30000 M⁻¹ s⁻¹ were found for B1 in this work. B1: no binding [1]; no binding (EGFR-ECD-Fc); no binding [2]. B1: binds (ECD); no binding (Mouse); binds [3]. B1: no binding (Rat); no binding (Domain3); no binding (Domain2). B1: no binding (Domain1).
